The source of these data is paper PMC6740198 (Molecular Biology of the Cell, 2019).

Test [1] addresses CD4-AChR β subunit MA loop chimera (UniProt P09690 333-469). The experiment in a line: co-IP.
For test [2], the target named is acetylcholine receptor (AChR) (mouse (endogenous in C2C12 myotubes and mouse muscle)) (UniProt P04756). The experiment in a line: pull-down.

B1: Flag-vezatin (natural protein, UniProt Q3ZK22 1-780, looked up)
chain: MTPEFDEEVVFENSPLYQYLQDLGHTDFEICSSSSPKPEKCLTTEGPQPPPTRVLQRQGILLKLTETIKSWTFSSQHSKKDDLLHKLDTGFRLDSLHTILQQEVLLQEDVELLELLDASILSAGQPQQESGHLPTLCSLATPNTWDVSLLFAFISLLIMFPTCWIVSSWLVWGIILFLYLIIRVLKLWRTAKLQMTLKKYRVRLEDMAANSRAFTNLVRKSLRLIQETEVISRGFTLVSAACSFNKAAQHPGQHLIGLRKAVYRTVRANFQAARLATLYMLKNYPLNSESDNVTNYICVVPFKELGLGLSEDQISEEEARNLTDGFSLPALKVLFQLWVAQSSEFFRRLALLLSTANSPSGPLLTAALLPHHILCDVTQGLPHAHSACLDELKRSYEFFRYFETQHQSVPQRLSKTPQKSRELSNVHTAVRSLQLHLKALLNEVIILEDELEKLVCTKETQELLSEAYPILEQKLKLIEPHVQASNSCWEEAISQVDKLLRRNTDKKGKPGVACENPHCTAEPLVRPALHIEDRDPIPEEQELEAYVDDIDIESEFRKDDFYHLSQEDRERQKREQEESRRVLQELKSVLGFKASEAERQKWKQLLFSDHAVLTSLSPVDPVESVSNSEPPMNSDTEKVNSNATEEETSKPCAGDKEDSRTEYVCDSPTEGPSKDTSADTGLLLPGAEETMCHQHESEAKSPQAAAAGATAPPTPRDTLQLSIKQRLARLQLPPEFTFSAGLAAEVAARSLSFTTMQEQTFGDEEEEQLVEGGENEVEEK
For the molecule B1, the “fold reduction of association when rapsyn-HA is coexpressed” value in test [1] was 4 fold. Further, in test [2], the fold increase in association in rapsn−/− against rapsn+/− muscle was found to be 1.8 fold and the fold increase in association with agrin treatment (against untreated myotubes) was 1.6 fold.
